Laboratory results taken from publication PMC4102529, “FRET Based Quantification and Screening Technology Platform for the Interactions of Leukocyte Function-Associated Antigen-1 (LFA-1) with InterCellular Adhesion Molecule-1 (ICAM-1)” (PLoS ONE, 2014).
pKd: −log10 of the molar value. Values belong to the substance of their own block, whether it stands above or below them.

How the values were obtained:
[1] = target: human recombinant ICAM-1 (D1-D2-Fc), Alexa Fluor 555 conjugate (human) (UniProt P05362); assay: FRET or BRET; steady-state, in solution competition screening, 96-well plate; Alexa Fluor 488-LFA-1 (100 nM) mixed with peptide (0.02, 0.2, 2, 20 µM), then incubated with Alexa Fluor 555-D1-D2-Fc (100 nM) for 30 min in the dark; PBS pH 7.4, 1 mM EGTA, 2 mM Mg2+; inhibition efficiency from the FRET efficiency
[2] = target: recombinant human integrin LFA-1 (αLβ2), Alexa Fluor 488 conjugate (human) (UniProt P20701); assay: FRET or BRET; steady-state, in solution, 96-well plate; Alexa Fluor 488-LFA-1 (donor) fixed at 100 nM, Alexa Fluor 555-D1-D2-Fc (acceptor) varied from 0 to 1.6 µM; PBS pH 7.4, 1 mM EGTA, 2 mM Mg2+; fit assuming one-to-one interaction
[3] = target: human recombinant ICAM-1 (D1-D2-Fc), Alexa Fluor 555 conjugate (human) (UniProt P05362); assay: FRET or BRET; steady-state, in solution; emission spectra at 470 nm excitation of mixtures with Alexa Fluor 555-D1-D2-Fc constant at 100 nM and Alexa Fluor 488-LFA-1 at 25-300 nM (A/D 8.40-0.70); incubated 30 minutes at room temperature; FRET efficiency by Eq. (3)

human recombinant ICAM-1 (D1-D2-Fc), Alexa Fluor 555 conjugate (human), sequence (P05362 28-532): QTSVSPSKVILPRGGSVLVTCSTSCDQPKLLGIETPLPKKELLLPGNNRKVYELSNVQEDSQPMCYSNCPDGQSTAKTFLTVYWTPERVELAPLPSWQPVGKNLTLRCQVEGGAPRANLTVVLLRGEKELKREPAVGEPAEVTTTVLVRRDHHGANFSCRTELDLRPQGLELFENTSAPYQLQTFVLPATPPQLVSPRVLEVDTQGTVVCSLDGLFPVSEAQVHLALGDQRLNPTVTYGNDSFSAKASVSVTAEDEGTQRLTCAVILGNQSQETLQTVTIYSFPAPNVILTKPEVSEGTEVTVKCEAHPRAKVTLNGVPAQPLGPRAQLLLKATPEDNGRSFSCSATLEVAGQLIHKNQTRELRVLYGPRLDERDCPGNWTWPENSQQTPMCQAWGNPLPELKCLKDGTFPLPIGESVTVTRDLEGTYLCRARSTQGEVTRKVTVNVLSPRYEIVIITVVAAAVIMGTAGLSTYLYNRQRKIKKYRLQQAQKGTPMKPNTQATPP
recombinant human integrin LFA-1 (αLβ2), Alexa Fluor 488 conjugate (human), sequence (P20701 26-1090, chain 1 of 2): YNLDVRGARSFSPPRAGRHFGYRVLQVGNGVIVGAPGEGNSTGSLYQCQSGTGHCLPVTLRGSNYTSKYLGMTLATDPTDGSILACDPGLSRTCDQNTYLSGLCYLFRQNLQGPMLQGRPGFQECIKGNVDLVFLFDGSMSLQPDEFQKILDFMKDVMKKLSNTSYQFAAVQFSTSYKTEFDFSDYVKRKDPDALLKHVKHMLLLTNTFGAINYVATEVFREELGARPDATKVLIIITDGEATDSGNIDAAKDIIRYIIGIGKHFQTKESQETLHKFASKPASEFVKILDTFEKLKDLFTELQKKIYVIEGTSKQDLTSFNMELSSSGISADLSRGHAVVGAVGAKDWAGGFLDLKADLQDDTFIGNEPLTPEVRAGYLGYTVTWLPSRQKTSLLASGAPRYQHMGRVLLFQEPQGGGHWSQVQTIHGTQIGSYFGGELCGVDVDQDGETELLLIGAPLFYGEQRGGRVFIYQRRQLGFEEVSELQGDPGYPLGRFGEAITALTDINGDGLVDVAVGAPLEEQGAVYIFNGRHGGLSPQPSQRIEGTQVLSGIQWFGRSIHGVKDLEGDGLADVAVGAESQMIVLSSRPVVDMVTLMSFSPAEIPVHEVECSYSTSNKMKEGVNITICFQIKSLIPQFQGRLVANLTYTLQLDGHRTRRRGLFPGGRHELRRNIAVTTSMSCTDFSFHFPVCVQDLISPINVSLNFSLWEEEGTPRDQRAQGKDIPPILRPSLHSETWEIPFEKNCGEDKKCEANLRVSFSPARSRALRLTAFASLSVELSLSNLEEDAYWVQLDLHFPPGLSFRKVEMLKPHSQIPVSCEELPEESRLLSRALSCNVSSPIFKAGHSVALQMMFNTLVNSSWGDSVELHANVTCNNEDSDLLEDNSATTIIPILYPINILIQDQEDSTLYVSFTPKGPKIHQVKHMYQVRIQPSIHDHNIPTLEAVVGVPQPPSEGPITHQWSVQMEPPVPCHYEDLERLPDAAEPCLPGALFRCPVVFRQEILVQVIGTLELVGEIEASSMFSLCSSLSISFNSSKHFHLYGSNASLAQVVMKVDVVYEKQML
recombinant human integrin LFA-1 (αLβ2), Alexa Fluor 488 conjugate (human), sequence (P05107 23-700, chain 2 of 2, further chain): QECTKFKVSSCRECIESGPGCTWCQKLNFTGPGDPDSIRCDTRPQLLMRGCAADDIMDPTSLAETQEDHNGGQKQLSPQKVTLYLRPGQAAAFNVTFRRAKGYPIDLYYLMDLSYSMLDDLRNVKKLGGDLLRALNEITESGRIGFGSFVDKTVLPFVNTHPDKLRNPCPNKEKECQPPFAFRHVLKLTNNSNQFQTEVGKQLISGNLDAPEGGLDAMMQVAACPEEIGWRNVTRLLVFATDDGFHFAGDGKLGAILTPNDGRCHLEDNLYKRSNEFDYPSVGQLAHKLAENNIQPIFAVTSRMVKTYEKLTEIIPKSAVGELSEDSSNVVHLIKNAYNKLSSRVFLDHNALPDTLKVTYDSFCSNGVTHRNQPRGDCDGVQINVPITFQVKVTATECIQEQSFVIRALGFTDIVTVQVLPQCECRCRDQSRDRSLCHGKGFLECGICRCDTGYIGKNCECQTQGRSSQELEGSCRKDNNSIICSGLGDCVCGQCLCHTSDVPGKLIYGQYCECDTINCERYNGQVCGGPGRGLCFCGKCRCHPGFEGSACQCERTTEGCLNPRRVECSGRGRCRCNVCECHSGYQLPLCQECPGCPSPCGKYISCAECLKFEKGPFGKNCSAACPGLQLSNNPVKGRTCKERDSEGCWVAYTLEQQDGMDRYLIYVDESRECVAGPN

inhibition efficiency of the LFA-1/D1-D2-Fc interaction at 0.02 µM peptide [1]: 20.9% | inhibition efficiency of the LFA-1/D1-D2-Fc interaction at 0.2 µM peptide [1]: 37.1% | inhibition efficiency of the LFA-1/D1-D2-Fc interaction at 2 µM peptide [1]: 46.9% | inhibition efficiency of the LFA-1/D1-D2-Fc interaction at 20 µM peptide [1]: 62%
Substance: CD11a(441–465) peptide

pKd [2]: 7.75
Substance: human recombinant ICAM-1 (D1-D2-Fc), Alexa Fluor 555 conjugate (from UniProt P05362 28-532) (Fc fusion)

FRET efficiency (%) at A/D ratio 2.12 (100 nM LFA-1) [3]: 53.5%
Substance: recombinant human integrin LFA-1 (αLβ2), Alexa Fluor 488 conjugate (from UniProt P20701 26-1090; P05107 23-700) (complex)
